Measurements from patent US10071358B2, “Antibiotic preparation method and platform system based on same” (priority 2011, dated 2018).

Tests used:
Type in all cases: cell-based
[1] = tested on: vancomycin-resistant enterococci (ATCC 700802); assay: inhibition / killing of vancomycin-resistant enterococci; conditions: FIG. 7 A
[2] = tested on: multi-drug resistant Pseudomonas aeruginosa (clinical isolated strain 13578 in West China Hospital); assay: inhibition / killing of multi-drug resistant Pseudomonas aeruginosa; conditions: FIG. 7 C
[3] = tested on: methicillin-resistant Staphylococcus aureus (ATCC BAA-42)

B1: wild-type colicin Ia: wild-type colicin Ia, bacteriocin secreted by Escherichia coli that forms ion channels (protein, UniProt P06716 1-626, looked up)
Colicin-Ia: MSDPVRITNPGAESLGYDSDGHEIMAVDIYVNPPRVDVFHGTPPAWSSFGNKTIWGGNEWVDDSPTRSDIEKRDKEITAYKNTLSAQQKENENKRTEAGKRLSAAIAAREKDENTLKTLRAGNADAADITRQEFRLLQAELREYGFRTEIAGYDALRLHTESRMLFADADSLRISPREARSLIEQAEKRQKDAQNADKKAADMLAEYERRKGILDTRLSELEKNGGAALAVLDAQQARLLGQQTRNDRAISEARNKLSSVTESLNTARNALTRAEQQLTQQKNTPDGKTIVSPEKFPGRSSTNHSIVVSGDPRFAGTIKITTSAVIDNRANLNYLLSHSGLDYKRNILNDRNPVVTEDVEGDKKIYNAEVAEWDKLRQRLLDARNKITSAESAVNSARNNLSARTNEQKHANDALNALLKEKENIRNQLSGINQKIAEEKRKQDELKATKDAINFTTEFLKSVSEKYGAKAEQLAREMAGQAKGKKIRNVEEALKTYEKYRADINKKINAKDRAAIAAALESVKLSDISSNLNRFSRGLGYAGKFTSLADWITEFGKAVRTENWRPLFVKTETIIAGNAATALVALVFSILTGSALGIIGYGLLMAVTGALIDESLVEKANKFWGI
- minimum inhibitory concentration (MIC) [1]: 0.91 nmol
- minimum inhibitory concentration (MIC) [2]: 0.91 nmol
- minimum inhibitory concentration (MIC) [3]: 0.23 nmol
